Assay results from publication PMC3687086 (Nature, 2013).

T1: Rpt1 (subunit of the base) (yeast, UniProt P33299 1-467)
T1 sequence: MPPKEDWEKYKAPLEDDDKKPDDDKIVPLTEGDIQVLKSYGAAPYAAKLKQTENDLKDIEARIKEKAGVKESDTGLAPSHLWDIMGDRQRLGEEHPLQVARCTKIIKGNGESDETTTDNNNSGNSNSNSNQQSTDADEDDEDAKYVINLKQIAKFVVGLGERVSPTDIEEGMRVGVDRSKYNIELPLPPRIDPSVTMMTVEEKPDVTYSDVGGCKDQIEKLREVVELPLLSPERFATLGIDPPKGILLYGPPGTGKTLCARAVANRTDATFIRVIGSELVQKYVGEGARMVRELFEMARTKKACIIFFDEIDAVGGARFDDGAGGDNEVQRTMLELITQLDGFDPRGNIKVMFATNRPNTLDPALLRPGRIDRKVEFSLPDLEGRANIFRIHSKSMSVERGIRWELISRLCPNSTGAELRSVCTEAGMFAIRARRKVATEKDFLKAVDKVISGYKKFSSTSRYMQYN


How the values were obtained:
[1] = target: Rpt2 (subunit of the base) (yeast, UniProt P40327 1-437); test: cryo-EM structure
[2] = target: T1, Rpt1 (subunit of the base); test: cryo-EM structure

Chain of Rpt2 (subunit of the base) (P40327 whole entry): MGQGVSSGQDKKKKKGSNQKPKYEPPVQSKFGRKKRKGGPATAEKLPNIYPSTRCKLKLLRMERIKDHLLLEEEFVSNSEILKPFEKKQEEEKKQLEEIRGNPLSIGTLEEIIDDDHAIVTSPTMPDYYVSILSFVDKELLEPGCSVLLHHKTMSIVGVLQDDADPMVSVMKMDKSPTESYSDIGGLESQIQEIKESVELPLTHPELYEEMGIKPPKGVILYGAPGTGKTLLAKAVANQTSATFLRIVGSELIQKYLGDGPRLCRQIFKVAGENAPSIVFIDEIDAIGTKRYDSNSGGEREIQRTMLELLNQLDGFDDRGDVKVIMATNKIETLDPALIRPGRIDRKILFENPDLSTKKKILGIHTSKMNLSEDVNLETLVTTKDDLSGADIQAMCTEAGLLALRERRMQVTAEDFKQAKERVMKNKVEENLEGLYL

Row | Binder | binding result [1] | binding result [2]
1 | CP subunit α3 (natural protein) MGSRRYDSRTTIFSPEGRLYQVEYALESISHAGTAIGIMASDGIVLAAERKVTSTLLEQDTSTEKLYKLNDKIAVAVAGLTADAEILINTARIHAQNYLKTYNEDIPVEILVRRLSDIKQGYTQHGGLRPFGVSFIYAGYDDRYGYQLYTSNPSGNYTGWKAISVGANTSAAQTLLQMDYKDDMKVDDAIELALKTLSKTTDSSALTYDRLEFATIRKGANDGEVYQKIFKPQEIKDILVKTGITKKDEDEEADEDMK | binds | 
2 | CP subunit α4 (natural protein) MSGYDRALSIFSPDGHIFQVEYALEAVKRGTCAVGVKGKNCVVLGCERRSTLKLQDTRITPSKVSKIDSHVVLSFSGLNADSRILIEKARVEAQSHRLTLEDPVTVEYLTRYVAGVQQRYTQSGGVRPFGVSTLIAGFDPRDDEPKLYQTEPSGIYSSWSAQTIGRNSKTVREFLEKNYDRKEPPATVEECVKLTVRSLLEVVQTGAKNIEITVVKPDSDIVALSSEEINQYVTQIEQEKQEQQEQDKKKKSNH | binds | binds
